According to US6569434 (MERCK, dated 2003):

Biological target: T1, rat VEGF A subunit, 164 amino acid mature (secreted) form of the 190 amino acid translation product (rat, UniProt P16612 27-214)
T1 construct: also called VEGF AB, A subunit; A chain
T1 sequence: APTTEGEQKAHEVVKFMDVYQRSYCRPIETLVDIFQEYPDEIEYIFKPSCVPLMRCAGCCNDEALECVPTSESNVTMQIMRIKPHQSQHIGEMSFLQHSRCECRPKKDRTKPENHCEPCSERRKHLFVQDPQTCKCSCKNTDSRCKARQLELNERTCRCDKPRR
Test: purified native VEGF AB reduced and carboxymethylated; subunits separated by C4 reverse phase HPLC and N-terminally sequenced; single 58 kDa band non-reduced against about 23 kDa reduced on SDS-PAGE

binding result: binds
B1: rat VEGF B subunit, 135 amino acid mature form derived from the 158 amino acid full length form (ligand)
chain: ALSAGNNSTEMEVVPFNEVWGRSYCRPMEKLVYIADEHPNEVSHIFSPSCVLLSRCSGCCGDEGLHCVALKTANITMQILKIPPNRDPHSYVEMTFSQDVLCECRPILETTKAERRKTKGKRKQSKTPQTEEPHL
notes: Native subunit purified from GS-9L conditioned medium as part of VEGF AB; also called VEGF AB, B subunit; B chain
